Assay results published in article PMC9337809 (Brain, 2022).

Columns and labels:
Assay in all cases: ELISA
[1] = target: SOD protein aggregates (Homo sapiens (assumed), UniProt P00441)
[2] = target: α-synuclein protein aggregates (Homo sapiens, UniProt P37840)
[3] = target: Aβ(1–28), synthetic, aggregated in the presence of Ca2+ (Homo sapiens, UniProt P05067)
Chain of Aβ(1–28), synthetic, aggregated in the presence of Ca2+ (P05067 672-699): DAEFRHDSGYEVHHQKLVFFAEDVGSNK

Chain of SOD protein aggregates (P00441 whole entry): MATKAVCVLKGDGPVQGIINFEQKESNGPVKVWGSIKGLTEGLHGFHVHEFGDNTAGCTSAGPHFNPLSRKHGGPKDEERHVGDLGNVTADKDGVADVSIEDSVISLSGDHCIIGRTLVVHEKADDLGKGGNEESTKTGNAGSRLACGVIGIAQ

B1: B28, human monoclonal antibody raised against synthetic oligomeric amyloid-β (antibody, V domains shown)
VH: QVQLVESGGGVVQPGRSVRLSCAATGFTFSSYGMHWVRQAPGKGLEWVAVIWFDGSNEYYADSVRGRFTISRDNSKNTLYLQMNSLRAEDTAVYYCARRGRVGVTRNYYYYNMDVWGQGTTVTVSS
VL: AIQMTQSPSSLSASVGDRVTITCRASQGIRNDLGWFQQKPGKAPKLLIYPASSLQSGVPSRFSGSGSDTDFTLTISSLQPEDFATYYCLQDYNFPFTFGPGTKVDIK
- binding result [1]: no binding
- binding result [2]: no binding

B2: B24, human monoclonal antibody raised against synthetic oligomeric amyloid-β (antibody, V domains shown)
VH: EVQLLESGGGLVQPGGSLRLSCAASGFTFSSYAMTWVRQAPGEGLEWVSTISGSGIRTYYADSVKGRFTISRDNSKNTMYLQMNSLRAEDTAVYYCAKDGLTGDRRWYFDLWGRGTLVTVSS
VL: EIVMTQSPATLSLSPGERATLSCRASQSVSSSYFSWYQQKPGQAPRLLIYGASTRATGIPARFSGSGSGTDFTLTISSLQPEDFAVYYCQQDSNLPLTFGGGTKVEIK
- binding result [3]: binds
- binding result [1]: no binding
- binding result [2]: no binding
